Reference: paper PMC12599243, “Mechanistic insights into DNA binding by BD1 of the TAF1 tandem bromodomain module”

System: TAF1 tandem bromodomain N1460F (human)
Assay: EMSA
Conditions: no peptide; EMSA: 50 mM HEPES pH 7.5, 100 mM NaCl, 35 nM DNA, 1 h at 4 C; 6% native PAGE, 0.5x TBE, 100 V on ice. HeLa mononucleosome pulldown (undefined DNA) not listed.

147 bp Widom 601 DNA
Kd: 18.2 µM
